Test [1] has as its target T1, porcine CD163 with deletion of SRCR domain 5, on pPAMΔ5 cells (porcine, UniProt Q2VL90 47-1115).
T1 construct: also called pPAMΔ5 domain cells; pPAMΔ5 WT cells
T1 sequence: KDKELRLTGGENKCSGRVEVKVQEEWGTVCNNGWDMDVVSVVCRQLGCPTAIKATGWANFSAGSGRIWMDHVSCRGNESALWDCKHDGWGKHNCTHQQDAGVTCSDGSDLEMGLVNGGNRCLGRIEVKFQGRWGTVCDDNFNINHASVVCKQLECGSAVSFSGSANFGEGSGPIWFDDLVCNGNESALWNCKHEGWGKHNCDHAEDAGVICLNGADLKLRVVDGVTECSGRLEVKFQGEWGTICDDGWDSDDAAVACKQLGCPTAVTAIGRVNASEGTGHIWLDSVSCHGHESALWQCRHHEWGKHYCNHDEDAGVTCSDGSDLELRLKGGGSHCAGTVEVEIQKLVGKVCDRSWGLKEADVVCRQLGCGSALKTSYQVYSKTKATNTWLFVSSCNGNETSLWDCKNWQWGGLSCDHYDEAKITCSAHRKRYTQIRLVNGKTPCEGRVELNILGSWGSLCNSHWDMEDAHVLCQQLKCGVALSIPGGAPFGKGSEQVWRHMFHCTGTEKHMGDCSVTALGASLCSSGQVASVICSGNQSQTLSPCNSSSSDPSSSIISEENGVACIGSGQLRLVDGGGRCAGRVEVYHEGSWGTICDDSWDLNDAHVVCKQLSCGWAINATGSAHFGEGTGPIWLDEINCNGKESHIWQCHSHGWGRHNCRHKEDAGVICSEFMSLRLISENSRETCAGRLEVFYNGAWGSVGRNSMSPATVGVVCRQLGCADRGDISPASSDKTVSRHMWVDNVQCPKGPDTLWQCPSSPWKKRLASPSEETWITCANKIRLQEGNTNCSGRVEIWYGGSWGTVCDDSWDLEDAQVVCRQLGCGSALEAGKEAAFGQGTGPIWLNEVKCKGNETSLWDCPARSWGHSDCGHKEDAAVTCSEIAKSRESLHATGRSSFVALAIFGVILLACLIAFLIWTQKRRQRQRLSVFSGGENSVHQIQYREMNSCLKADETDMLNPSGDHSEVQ
The test is described as follows: P.E. binding FACS on pPAMΔ5 cells. The method, then:
Periplasmic Extract (P.E) from the selected clones were incubated with anti-c-myc antibody (Roche; Cat. nr. 11667203001), specific to the c-myc tag present in the soluble VHH, for 30 minutes with agitation at room temperature (RT). The mix (P.E+anti-c-myc antibody) was added to the pPAM WT or pPAMΔ5 domain (cells with deletion of SRCR domain 5) and incubated for 60 min at 4° C. with gentle shaking.
Cells were washed 3× with 150 μl/well of FACS Buffer and incubated with 50 μl/well of the secondary antibody GAM-APC for 30 min at 4° C. and protected from the light, with shaking.

A further test deals with T2, pCD163-SRCR-FL-PST2-His (porcine, UniProt Q2VL90 51-1044).
T2 construct: also called pCD163-1-PST2-His; pCD163-SRCR1-PST2; not shown: His tag
T2 sequence: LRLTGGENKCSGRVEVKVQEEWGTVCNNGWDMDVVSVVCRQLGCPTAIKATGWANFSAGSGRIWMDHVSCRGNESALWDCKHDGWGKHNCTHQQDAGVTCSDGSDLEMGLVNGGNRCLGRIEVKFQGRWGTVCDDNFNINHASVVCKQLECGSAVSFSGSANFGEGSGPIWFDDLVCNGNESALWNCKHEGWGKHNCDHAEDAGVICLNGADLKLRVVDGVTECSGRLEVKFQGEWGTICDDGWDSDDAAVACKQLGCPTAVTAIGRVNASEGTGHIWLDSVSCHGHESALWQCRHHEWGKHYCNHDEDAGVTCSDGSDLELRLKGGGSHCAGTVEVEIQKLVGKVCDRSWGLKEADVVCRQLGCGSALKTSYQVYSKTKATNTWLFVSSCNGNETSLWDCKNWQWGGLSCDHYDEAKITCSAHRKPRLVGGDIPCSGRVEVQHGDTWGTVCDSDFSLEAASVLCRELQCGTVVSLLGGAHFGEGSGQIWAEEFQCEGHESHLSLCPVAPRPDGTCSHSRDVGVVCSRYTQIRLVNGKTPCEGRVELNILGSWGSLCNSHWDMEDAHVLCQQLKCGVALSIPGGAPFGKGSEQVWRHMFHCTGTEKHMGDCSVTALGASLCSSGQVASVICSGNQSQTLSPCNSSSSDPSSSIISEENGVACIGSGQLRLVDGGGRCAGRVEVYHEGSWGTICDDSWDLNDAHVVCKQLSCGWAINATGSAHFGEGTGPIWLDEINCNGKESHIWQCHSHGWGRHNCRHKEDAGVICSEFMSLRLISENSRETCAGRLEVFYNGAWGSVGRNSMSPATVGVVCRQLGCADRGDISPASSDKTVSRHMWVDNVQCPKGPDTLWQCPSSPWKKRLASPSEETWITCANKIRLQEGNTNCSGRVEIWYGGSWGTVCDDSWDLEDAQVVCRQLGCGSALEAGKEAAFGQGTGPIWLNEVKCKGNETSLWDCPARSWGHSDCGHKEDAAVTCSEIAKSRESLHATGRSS
Put plainly: Biacore 3000 SPR, antigen amine-coupled on CM5 chip, VHH 200-12.5 nM, pH 7.4, 1:1 binding with mass transfer. As to the method:
Surface plasmon resonance (SPR) (Biacore 3000, GE Healthcare) was used to determine the binding kinetics of selected single domain antibodies at pH7.4. Approximately 2075 to 2423 RUs of pCD163-SRCR1-9-huFc or 2859 to 3286 RUs of pCD163-1-PST2-His. respectively, at 20 or 30 μg/ml in Acetate buffer pH 5.0 or pH 5.5 were immobilized onto a CM5 chip using the standard amine coupling procedure.
1×HBS-EP pH 7.4, was utilized as a running buffer during binding kinetic measurements. Purified VHH were injected at 2-fold dilution from 200 nM down to 12.5 nM in HBS-EP pH 7.4, at 30 μl/min for 2 minutes, followed by an off-rate wash for 1 min between injections. Off-rate wash was 300s after the last concentration injection in each cycle. RU levels were restored to base levels after regeneration with two injections of 10 μl of 1 M NaCl, 1 mM Glycine pH 1.5 between samples.
Fitting 1:1 binding with mass transfer was applied to the set of sample curves using the simultaneous fitting option of the BIAevaluation software to calculate the kinetic constants of the antibody-antigen interactions including association rate (ka), dissociation rate (kd) and affinity (KD). Curves were removed from the fitting after visual examination of the residuals and considering the value of Chi2: a minimum of 4 curves were considered for the simultaneous fitting.
In general terms: In SPR one partner is held on a chip, and binding of the other changes the refractive index at the surface.

B1: Clone 39-H17B11 VHH antibody (VHH)
VHH: QVQLVESGGGLVQAGGSLRLSCAASGRTFSSYAMGWFRQTPGKDREFVARIGWTGGTTIYADSVKGRFTISRDNAKNTVYLQMNSLKPEDTAVYYCAADQAGWRTAGVRNTYEYDYWGQGTQVTVSS
notes: Llama single domain antibody; also called clone 17B11; not shown: tags: c-myc tag on the soluble VHH in periplasmic extracts; FLAG and His tags on the purified VHH
Broadly, the Kd is the constant that tells how readily two partners part at equilibrium. A word on the koff: it is the first-order rate constant of dissociation. For orientation: kon means the rate constant with which the complex forms. As for B1, the binding result in test [1] is recorded as “no binding”. Further, in the test with pCD163-SRCR-FL-PST2-His, the Kd worked out at 255 µM, the koff came to 0.281 s⁻¹ and the kon was found to be 1100 M⁻¹ s⁻¹.

Values taken from patent US20260085129A1 (ECO ANIMAL HEALTH, published 2026).
